Results taken from the supplement of paper PMC6379048.

Key:
TSNAX = target: T1, TSNAX (UniProt Q99598); experiment: EC50 of free RNA motif oligo competing protein binding to immobilised probe
T1 sequence: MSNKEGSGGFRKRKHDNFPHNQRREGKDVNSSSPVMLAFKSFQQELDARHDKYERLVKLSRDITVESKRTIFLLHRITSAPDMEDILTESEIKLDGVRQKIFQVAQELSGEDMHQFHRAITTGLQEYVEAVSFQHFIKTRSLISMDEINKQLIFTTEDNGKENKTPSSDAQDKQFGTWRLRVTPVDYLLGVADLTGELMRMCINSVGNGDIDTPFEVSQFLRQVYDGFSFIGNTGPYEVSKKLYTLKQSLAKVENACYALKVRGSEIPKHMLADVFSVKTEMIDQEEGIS
Outline: (§1)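 HEK293-FT lysate (2.5 mg protein/well) was treated with free RNA oligos (0 nM to 30 μM) for 1 h at 4°C, then with the same oligos on NHS-Sepharose beads for 30 min at 4°C. Bound proteins were quantified by label-free LC-MS/MS relative to the control. EC50 came from a four-parameter log-logistic fit, and Kd is EC50 times a protein-dependent depletion factor.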

HSP90AB2P = HSP90AB2P (UniProt Q58FF8); experiment: as above
Outline: as §1

CSTF2 = target: T2, CSTF2 (UniProt P33240); experiment: Kd (EC50 corrected by depletion factor)
T2 sequence: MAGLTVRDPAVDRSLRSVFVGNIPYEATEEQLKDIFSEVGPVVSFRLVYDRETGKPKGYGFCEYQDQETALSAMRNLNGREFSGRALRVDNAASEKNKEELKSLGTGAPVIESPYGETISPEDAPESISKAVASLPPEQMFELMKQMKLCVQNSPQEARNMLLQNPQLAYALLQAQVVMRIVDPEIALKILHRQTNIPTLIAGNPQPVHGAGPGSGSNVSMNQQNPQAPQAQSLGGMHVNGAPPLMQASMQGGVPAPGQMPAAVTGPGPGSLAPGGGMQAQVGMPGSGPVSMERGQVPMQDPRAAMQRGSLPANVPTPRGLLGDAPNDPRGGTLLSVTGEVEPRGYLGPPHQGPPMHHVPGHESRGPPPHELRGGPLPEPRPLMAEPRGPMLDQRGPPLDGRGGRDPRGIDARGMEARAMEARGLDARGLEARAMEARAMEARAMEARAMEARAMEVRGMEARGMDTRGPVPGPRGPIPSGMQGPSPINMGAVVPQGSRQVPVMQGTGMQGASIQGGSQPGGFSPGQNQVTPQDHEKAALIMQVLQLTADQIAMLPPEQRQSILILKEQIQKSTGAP
Outline: as §1

SLIRP = SLIRP (UniProt Q9GZT3); experiment: Kd (EC50 corrected by depletion factor)
Outline: as §1

MRPL21 = MRPL21 (UniProt Q7Z2W9); experiment: EC50 of free RNA motif oligo competing protein binding to immobilised probe
Outline: as §1

SRSF6 = SRSF6 (UniProt Q13247); experiment: as above
Outline: as §1

MRPL37 = MRPL37 (UniProt Q9BZE1); experiment: as above
Outline: as §1

MRPL39 = MRPL39 (UniProt Q9NYK5); experiment: as above
Outline: as §1

MRPL50 = MRPL50 (UniProt Q8N5N7); experiment: as above
Outline: as §1

RPS3A = RPS3A (UniProt P61247); experiment: as above
Outline: as §1

PRPF4 = target: T3, PRPF4 (UniProt O43172); experiment: as above
T3 sequence: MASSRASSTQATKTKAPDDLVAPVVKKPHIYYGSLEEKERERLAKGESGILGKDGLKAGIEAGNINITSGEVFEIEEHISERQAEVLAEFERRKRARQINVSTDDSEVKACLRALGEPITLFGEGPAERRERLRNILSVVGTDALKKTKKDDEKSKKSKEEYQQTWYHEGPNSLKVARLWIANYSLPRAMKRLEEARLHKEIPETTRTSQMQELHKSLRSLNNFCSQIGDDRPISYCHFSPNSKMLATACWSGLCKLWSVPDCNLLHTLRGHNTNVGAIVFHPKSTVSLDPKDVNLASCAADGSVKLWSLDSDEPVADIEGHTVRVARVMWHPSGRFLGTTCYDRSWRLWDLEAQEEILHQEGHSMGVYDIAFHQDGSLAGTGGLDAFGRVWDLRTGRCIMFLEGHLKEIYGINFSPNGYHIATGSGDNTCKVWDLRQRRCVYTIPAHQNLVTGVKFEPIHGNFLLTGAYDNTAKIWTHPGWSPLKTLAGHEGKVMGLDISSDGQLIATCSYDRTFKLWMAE
Outline: as §1

TARDBP = TARDBP (UniProt Q13148); experiment: as above
Outline: as §1

ZCRB1 = target: T4, ZCRB1 (UniProt Q8TBF4); experiment: as above
T4 sequence: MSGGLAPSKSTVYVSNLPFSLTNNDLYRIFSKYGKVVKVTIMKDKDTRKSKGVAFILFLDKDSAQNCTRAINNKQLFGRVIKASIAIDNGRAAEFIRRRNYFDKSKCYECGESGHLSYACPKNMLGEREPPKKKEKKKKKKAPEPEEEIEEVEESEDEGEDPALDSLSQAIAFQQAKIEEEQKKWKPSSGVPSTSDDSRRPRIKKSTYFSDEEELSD
Outline: as §1

Chain of HSP90AB2P (Q58FF8 whole entry): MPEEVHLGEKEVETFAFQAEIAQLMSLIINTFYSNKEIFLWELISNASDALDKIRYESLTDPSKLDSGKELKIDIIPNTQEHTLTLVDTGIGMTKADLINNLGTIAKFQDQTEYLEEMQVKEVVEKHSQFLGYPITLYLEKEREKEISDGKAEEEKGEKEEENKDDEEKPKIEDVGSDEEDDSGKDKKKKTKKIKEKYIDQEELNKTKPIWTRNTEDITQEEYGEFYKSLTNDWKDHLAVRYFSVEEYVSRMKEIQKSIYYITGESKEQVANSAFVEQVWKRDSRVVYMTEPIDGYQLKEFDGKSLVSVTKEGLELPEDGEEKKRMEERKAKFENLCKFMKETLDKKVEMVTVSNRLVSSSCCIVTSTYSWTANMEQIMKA
Chain of SRSF6 (Q13247 whole entry, looked up): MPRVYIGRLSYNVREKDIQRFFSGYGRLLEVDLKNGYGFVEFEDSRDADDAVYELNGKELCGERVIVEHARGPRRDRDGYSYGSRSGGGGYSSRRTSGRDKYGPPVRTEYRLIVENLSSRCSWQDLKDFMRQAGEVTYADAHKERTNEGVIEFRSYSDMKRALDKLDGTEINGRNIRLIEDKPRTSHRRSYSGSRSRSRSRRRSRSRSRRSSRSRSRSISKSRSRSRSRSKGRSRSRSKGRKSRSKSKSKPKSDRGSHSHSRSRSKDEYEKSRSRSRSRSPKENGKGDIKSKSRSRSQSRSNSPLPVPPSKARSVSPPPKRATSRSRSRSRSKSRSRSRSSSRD
Chain of TARDBP (Q13148 whole entry): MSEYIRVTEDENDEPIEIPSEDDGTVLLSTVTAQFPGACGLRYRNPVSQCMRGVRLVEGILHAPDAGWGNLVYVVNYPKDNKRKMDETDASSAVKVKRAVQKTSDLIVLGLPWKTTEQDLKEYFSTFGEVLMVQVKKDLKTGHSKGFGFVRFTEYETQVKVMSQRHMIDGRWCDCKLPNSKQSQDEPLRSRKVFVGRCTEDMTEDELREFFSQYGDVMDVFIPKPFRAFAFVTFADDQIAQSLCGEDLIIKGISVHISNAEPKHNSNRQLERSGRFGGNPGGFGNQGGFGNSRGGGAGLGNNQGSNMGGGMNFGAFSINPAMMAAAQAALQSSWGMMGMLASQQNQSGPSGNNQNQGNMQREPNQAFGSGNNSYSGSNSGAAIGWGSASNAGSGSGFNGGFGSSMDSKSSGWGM

Row | Sequence | EC50 (TSNAX) [nM] | EC50 (HSP90AB2P) [nM] | Kd (CSTF2) [nM] | Kd (SLIRP) [nM] | EC50 (MRPL21) [nM] | EC50 (SRSF6) [nM] | EC50 (MRPL37) [nM] | EC50 (MRPL39) [nM] | EC50 (MRPL50) [nM] | EC50 (RPS3A) [nM] | EC50 (PRPF4) [nM] | EC50 (TARDBP) [nM] | EC50 (ZCRB1) [nM]
1 | AAUAAA | 30.5 | 129 | 7.84 | 393 | – | – | – | – | – | – | – | – | –
2 | CUGUCCU | – | – | – | 904 | 151 | 1140 | 245 | 248 | 244 | 106 | – | – | –
3 | UAUUUAU | – | – | 286 | – | – | – | – | – | – | – | 6810 | 2790 | 3800
